Data on 3 molecules can be found in paper PMC10583366, “OsCBL1 modulates rice nitrogen use efficiency via negative regulation of OsNRT2.2 by OsCCA1”.

B1: P8 (dsDNA)
DNA 1: CTTCAGGCCGTCATGAAAAAAAACCAGTGCATATCTCATGGCAAGAAGAAGTGCAGGTTGTGAA
DNA 2: TTCACAACCTGCACTTCTTCTTGCCATGAGATATGCACTGGTTTTTTTTCATGACGGCCTGAAG
B2: P7 (dsDNA)
DNA 1: ATATGATGTGTATGGGAATTGGGATGCTGAAAACAAATGCAACTGGACACATATCTGCAACTTGTAAATAACTTTTATTTCTTTTAATGGAAAAAATGTG
DNA 2: CACATTTTTTCCATTAAAAGAAATAAAAGTTATTTACAAGTTGCAGATATGTGTCCAGTTGCATTTGTTTTCAGCATCCCAATTCCCATACACATCATAT
B3: P6 (dsDNA)
DNA 1: TAAAAAATACCTGCAGGTGCTCTAGTTCAACTGAAGGGCCAGATTTAGCAATATCTGAGTCCTTCAAATAAATTCATCAACTAACAAACTTCAACCGAAG
DNA 2: CTTCGGTTGAAGTTTGTTAGTTGATGAATTTATTTGAAGGACTCAGATATTGCTAAATCTGGCCCTTCAGTTGAACTAGAGCACCTGCAGGTATTTTTTA

For the data set, the target named is OsCCA1 (His-OsCCA1; Nhd1) (Oryza sativa, UniProt A0A0P0XBU0 1-719). The experiment in a line: EMSA; 10 mM Tris-HCl pH 7.5, 50 mM KCl, 1 mM DTT, 4 C, 40 min; 4% TBE-PAGE at 4 C, ethidium bromide stain. The conditions noted are these: protein: recombinant; tags: His (pET-28a); ATATCT (motif).
Chain of OsCCA1 (His-OsCCA1; Nhd1) (A0A0P0XBU0 whole entry): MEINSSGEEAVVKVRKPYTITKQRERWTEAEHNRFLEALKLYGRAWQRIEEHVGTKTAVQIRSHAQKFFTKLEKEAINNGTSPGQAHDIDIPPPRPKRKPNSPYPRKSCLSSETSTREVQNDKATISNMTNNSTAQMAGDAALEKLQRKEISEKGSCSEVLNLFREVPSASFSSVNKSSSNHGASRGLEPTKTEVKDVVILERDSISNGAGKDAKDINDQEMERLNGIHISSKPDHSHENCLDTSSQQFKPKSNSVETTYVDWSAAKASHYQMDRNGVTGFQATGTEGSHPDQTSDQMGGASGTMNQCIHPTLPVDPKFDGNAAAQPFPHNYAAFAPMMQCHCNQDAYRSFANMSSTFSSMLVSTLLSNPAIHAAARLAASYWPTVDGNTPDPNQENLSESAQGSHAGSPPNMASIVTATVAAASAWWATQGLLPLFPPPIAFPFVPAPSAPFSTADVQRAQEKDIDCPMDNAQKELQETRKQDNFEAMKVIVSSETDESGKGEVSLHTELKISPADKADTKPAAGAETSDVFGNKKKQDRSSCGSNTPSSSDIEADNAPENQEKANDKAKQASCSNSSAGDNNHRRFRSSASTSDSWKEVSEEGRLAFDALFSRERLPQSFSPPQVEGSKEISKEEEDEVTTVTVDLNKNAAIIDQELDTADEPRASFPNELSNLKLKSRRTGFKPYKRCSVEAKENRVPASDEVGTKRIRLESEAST
As to B1, the binding result is recorded as “binds”. The entry for B2 is “binds”; for B3 it is “binds”.
